pKd: −log10 of the molar value.
Target: His6-tagged αSyn (human) (UniProt P37840)
Experiment: BLI

pKd: 4.82
Substance: E234G/H363A-HYPE (from UniProt Q9BVA6 102-458) (enzyme)

Reference: paper doi:10.1101/525659
